Blank lines part the entries; values can stand above or below the binder they belong to.
B2: recombinant human cANGPTL4 (C-terminal region of angiopoietin-like 4) (ligand, UniProt Q9BY76 186-406, looked up)
chain: RDCQELFQVGERQSGLFEIQPQGSPPFLVNCKMTSDGGWTVIQRRHDGSVDFNRPWEAYKAGFGDPHGEFWLGLEKVHSITGDRNSRLAVQLRDWDGNAELLQFSVHLGGEDTAYSLQLTAPVAGQLGATTVPPSGLSVPFSTWDQDHDLRRDKNCAKSLSGGWWFGTCSHSNLNGQYFRSIPQQRQKLKKGIFWKTWRGRYYPLQATTMLIQPMAAEAAS
notes: domain: c terminal region; the tag is not specified; also called rh-cANGPTL4; rhcANGPTL4
B3: claudin-5 of primary human microvascular endothelial cells (HMVECs) (other, UniProt O00501 1-218, looked up)
chain: MGSAALEILGLVLCLVGWGGLILACGLPMWQVTAFLDHNIVTAQTTWKGLWMSCVVQSTGHMQCKVYDSVLALSTEVQAARALTVSAVLLAFVALFVTLAGAQCTTCVAPGPAKARVALTGGVLYLFCGLLALVPLCWFANIVVREFYDPSVPVSQKYELGAALYIGWAATALLMVGGCLLCCGAWVCTGRPDLSFPVKYSAPRRPTATGDYDKKNYV
notes: whole, on cells; Endogenous protein, detected by in situ PLA and by co-immunoprecipitation

Experiments:
[1] = target: B2; assay: SPR, immobilised cANGPTL4 (FIG. 2B)
Experimental: (§1) SPR was carried out as previously described17,18 using a BIAcore 2000 system (BIAcore, Uppsala, Sweden). Six concentrations (0.16, 0.32, 0.63, 1.25, 2.50 and 5.0 μM) of recombinant integrin β1, first extracellular domain of VE-cadherin (ECD1), extracellular repeat 1 domain of VE-cadherin (EC1), occludin or JAM-A were used. Integrin was expressed in Drosophila S2 cells17 and various extracellular domains of VE-cadherin and claudin-5 purchased from Abnova. Global fitting of the SPR data was performed as previously described to determine the KD. Preinjection or preincubation with the indicated antibodies or preimmune IgG was performed to determine specific interactions. Each sensorgram was corrected by subtracting a sensorgram obtained from a reference flow cell with no immobilized protein. […] Values are mean±S.D. (n=3)

occludin = target: T1, occludin (UniProt Q16625 1-522, limits assumed); assay: SPR, immobilised cANGPTL4
T1 sequence (looked up): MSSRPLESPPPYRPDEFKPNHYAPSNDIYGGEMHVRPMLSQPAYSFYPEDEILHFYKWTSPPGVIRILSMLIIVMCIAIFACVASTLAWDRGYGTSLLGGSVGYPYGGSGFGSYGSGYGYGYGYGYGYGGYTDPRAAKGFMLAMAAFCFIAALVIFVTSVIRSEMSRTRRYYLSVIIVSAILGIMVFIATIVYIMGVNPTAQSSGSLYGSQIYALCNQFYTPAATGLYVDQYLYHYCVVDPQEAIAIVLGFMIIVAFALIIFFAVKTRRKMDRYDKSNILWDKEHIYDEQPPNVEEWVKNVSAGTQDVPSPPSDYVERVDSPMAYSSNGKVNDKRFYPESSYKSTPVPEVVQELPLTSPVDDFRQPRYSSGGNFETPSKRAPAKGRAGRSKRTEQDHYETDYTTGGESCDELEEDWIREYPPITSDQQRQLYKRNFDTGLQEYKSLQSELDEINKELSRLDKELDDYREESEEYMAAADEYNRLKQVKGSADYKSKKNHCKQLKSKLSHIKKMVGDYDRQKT
Experimental: as §1

claudin-5 (SPR analyte) = claudin-5 (SPR analyte) (UniProt O00501); assay: SPR (BIAcore 2000), immobilised cANGPTL4, global fit
[2] = target: recombinant integrin α5β1 (UniProt P08648); assay: as above
[3] = target: T2, integrin α5β1 of primary human microvascular endothelial cells (HMVECs) (human, UniProt P08648 42-1049; P05556 21-798); assay: in situ proximity ligation assay on ECs, 250 cells
T2 construct: whole, on cells; Endogenous protein, detected by in situ PLA and by co-immunoprecipitation from HMVEC lysates
T2 sequence (P08648 42-1049, chain 1 of 2): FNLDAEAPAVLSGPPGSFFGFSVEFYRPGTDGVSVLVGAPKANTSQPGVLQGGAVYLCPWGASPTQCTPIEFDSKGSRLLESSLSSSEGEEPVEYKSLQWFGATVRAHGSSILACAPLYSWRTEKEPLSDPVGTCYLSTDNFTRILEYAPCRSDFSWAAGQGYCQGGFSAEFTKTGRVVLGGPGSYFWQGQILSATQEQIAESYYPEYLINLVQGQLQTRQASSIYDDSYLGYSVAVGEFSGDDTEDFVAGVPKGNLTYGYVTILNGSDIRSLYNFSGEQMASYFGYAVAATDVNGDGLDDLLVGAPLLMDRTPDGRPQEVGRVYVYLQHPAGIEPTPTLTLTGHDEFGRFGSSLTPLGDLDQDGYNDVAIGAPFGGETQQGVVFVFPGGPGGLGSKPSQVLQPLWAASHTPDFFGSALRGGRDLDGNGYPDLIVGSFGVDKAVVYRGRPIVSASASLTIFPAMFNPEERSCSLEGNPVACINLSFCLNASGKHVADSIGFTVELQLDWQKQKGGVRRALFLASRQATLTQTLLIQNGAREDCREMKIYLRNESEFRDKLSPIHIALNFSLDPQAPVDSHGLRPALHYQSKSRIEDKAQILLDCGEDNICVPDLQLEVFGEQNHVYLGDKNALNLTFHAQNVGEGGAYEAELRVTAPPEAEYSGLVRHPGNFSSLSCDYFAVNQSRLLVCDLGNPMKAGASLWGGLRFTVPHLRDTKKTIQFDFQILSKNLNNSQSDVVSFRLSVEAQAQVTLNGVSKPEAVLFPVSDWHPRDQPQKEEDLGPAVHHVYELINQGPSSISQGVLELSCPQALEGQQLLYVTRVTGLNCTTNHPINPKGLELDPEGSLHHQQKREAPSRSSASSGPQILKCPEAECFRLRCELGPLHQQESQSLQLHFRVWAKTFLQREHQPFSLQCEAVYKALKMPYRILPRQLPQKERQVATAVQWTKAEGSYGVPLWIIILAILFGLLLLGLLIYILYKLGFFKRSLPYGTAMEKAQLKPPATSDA
T2 sequence (P05556 21-798, chain 2 of 2): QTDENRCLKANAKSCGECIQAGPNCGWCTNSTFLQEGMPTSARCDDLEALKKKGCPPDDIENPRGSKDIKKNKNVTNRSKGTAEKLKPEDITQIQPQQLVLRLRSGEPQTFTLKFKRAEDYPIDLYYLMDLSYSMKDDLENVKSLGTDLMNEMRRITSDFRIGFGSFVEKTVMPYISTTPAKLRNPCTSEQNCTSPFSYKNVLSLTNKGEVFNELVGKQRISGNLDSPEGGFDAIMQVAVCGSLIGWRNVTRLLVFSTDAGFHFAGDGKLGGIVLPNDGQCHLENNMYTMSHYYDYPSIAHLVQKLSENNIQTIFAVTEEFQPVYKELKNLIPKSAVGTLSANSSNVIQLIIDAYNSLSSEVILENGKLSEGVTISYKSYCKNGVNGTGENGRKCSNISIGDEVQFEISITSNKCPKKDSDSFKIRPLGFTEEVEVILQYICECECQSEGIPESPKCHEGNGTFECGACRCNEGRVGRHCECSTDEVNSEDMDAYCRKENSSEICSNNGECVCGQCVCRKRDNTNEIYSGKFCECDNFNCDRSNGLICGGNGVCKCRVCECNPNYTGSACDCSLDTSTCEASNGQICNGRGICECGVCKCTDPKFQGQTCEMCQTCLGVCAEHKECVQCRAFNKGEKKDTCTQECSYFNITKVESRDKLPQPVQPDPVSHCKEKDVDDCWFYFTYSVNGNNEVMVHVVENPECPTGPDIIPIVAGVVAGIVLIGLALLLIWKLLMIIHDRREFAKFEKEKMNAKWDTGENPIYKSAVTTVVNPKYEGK

[4] = target: T3, VE-cadherin of primary human microvascular endothelial cells (HMVECs) (human, UniProt P33151 48-784); assay: in situ proximity ligation assay on ECs, 250 cells
T3 construct: whole, on cells; Endogenous protein, detected by in situ PLA and by co-immunoprecipitation
T3 sequence (looked up): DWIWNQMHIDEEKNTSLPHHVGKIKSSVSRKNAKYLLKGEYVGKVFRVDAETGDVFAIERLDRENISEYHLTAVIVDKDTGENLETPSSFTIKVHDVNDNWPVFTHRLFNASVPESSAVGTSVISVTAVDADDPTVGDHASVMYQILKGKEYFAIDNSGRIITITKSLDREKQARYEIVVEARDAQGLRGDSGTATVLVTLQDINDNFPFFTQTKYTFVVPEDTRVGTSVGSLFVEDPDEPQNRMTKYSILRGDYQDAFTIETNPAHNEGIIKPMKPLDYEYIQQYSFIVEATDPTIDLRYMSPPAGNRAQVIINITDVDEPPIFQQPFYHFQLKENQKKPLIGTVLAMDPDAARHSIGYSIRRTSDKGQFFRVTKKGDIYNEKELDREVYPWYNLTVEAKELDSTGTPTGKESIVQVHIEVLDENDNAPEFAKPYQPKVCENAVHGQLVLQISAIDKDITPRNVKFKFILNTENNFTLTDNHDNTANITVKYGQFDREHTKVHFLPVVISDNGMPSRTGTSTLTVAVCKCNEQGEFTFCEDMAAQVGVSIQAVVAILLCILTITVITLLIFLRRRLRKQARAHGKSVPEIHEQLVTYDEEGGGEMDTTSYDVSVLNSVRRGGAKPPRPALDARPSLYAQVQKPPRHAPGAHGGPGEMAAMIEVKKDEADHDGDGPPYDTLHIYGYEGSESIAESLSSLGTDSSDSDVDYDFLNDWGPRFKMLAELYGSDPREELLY

[5] = target: B3; assay: in situ proximity ligation assay on ECs, 250 cells
[6] = target: integrin β3 (control of the interaction analysis in paragraph 126) (UniProt P05106 27-718, limits assumed); assay: SPR control (sentence also cites references 16, 17)
Sequence of integrin β3 (control of the interaction analysis in paragraph 126) (P05106 27-718 limits assumed): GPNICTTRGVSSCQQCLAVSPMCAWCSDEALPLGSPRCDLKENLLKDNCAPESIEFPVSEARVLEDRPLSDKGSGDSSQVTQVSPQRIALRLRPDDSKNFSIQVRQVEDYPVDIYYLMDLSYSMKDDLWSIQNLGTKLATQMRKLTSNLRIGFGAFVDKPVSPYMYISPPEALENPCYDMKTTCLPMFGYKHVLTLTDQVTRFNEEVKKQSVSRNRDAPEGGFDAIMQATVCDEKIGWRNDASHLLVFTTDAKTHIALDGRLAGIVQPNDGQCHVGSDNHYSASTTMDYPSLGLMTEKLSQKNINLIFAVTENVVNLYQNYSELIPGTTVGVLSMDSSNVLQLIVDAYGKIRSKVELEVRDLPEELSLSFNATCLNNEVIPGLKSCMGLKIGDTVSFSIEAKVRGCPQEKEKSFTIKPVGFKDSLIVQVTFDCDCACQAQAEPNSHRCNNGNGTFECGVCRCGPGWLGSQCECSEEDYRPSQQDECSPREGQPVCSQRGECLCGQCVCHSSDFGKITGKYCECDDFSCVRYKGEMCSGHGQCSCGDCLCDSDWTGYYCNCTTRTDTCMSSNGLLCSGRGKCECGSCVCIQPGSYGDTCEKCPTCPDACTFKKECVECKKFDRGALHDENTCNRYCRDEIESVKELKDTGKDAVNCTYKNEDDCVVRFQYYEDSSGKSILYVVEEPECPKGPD

[7] = target: T4, VE-cadherin (SPR analyte) (UniProt P33151 48-599, limits assumed); assay: SPR (BIAcore 2000), immobilised cANGPTL4, global fit
T4 sequence (looked up): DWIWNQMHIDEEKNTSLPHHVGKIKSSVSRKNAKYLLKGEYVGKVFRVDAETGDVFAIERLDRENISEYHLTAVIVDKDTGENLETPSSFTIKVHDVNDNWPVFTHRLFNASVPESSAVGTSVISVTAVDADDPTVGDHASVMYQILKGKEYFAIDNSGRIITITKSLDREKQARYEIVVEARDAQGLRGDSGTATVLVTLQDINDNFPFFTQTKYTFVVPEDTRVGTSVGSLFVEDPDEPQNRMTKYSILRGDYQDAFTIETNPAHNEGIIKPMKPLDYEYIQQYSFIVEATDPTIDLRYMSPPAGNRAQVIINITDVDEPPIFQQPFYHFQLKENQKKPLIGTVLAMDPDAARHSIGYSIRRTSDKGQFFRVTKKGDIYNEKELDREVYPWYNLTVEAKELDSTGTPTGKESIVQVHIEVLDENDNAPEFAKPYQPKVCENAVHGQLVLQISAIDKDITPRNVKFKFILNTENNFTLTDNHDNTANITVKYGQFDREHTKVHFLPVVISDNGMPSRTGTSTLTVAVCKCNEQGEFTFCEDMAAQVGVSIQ
Experimental: as §1

Tie1 = target: T5, Tie1 (human, UniProt P35590 22-1138); assay: co-immunoprecipitation with anti-cANGPTL4 from lysates of rh-cANGPTL4-treated HMVECs (FIG. 5B)
T5 construct: whole, on cells
T5 sequence (P35590 22-1138): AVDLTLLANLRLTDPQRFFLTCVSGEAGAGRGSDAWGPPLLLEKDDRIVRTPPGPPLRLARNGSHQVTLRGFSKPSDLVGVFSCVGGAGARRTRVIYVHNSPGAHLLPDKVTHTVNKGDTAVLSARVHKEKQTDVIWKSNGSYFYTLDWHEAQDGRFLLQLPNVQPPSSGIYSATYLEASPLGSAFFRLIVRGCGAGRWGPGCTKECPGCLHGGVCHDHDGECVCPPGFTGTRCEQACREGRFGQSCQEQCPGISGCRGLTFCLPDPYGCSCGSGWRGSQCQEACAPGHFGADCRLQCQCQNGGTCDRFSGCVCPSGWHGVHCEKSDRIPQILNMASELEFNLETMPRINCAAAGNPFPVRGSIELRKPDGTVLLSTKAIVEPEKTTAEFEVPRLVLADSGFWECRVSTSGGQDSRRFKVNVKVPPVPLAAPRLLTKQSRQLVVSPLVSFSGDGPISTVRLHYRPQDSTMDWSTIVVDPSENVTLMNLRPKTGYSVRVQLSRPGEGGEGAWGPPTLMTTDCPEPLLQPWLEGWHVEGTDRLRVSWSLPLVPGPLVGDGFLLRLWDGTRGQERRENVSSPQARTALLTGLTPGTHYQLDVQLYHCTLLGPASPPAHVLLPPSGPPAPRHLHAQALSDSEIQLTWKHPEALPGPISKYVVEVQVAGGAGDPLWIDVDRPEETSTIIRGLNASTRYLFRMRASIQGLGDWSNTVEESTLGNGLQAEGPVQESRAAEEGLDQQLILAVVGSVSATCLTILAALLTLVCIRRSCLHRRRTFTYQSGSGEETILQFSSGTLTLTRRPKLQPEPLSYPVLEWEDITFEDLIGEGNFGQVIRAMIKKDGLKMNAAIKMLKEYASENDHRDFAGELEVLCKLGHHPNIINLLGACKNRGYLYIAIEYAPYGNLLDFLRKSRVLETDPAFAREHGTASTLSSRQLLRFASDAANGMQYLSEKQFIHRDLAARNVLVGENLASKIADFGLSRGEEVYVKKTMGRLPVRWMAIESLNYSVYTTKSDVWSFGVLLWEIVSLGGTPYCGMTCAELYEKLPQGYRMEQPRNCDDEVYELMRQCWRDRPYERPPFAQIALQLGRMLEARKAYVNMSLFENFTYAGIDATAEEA

Tie2 = target: T6, Tie2 (human, UniProt Q02763 23-1124); assay: as above
T6 construct: whole, on cells

integrin β3 of HMVECs = target: T7, integrin β3 of HMVECs (human, UniProt P05106 27-788); assay: as above
T7 construct: whole, on cells
T7 sequence (P05106 27-788): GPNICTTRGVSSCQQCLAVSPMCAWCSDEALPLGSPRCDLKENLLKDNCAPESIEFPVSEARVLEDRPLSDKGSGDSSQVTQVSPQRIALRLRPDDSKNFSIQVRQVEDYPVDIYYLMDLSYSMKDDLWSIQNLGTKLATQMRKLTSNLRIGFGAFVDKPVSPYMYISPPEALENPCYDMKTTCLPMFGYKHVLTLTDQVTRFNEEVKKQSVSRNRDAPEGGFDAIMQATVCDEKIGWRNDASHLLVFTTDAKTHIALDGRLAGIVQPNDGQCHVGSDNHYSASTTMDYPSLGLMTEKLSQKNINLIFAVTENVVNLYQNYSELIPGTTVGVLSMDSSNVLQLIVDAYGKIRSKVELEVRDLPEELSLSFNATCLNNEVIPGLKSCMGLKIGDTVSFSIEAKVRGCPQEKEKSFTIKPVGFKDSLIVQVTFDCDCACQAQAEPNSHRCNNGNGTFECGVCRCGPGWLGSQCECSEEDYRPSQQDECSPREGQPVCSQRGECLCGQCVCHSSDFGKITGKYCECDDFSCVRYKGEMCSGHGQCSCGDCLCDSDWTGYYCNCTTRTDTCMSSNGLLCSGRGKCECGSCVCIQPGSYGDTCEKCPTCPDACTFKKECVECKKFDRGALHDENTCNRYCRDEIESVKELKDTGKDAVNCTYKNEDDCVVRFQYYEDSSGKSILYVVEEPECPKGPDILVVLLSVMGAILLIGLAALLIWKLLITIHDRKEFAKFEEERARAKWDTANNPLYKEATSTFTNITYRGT

junction protein JAM-C = target: T8, junction protein JAM-C (human, UniProt Q9BX67 32-310); assay: as above
T8 construct: whole, on cells
T8 sequence (looked up): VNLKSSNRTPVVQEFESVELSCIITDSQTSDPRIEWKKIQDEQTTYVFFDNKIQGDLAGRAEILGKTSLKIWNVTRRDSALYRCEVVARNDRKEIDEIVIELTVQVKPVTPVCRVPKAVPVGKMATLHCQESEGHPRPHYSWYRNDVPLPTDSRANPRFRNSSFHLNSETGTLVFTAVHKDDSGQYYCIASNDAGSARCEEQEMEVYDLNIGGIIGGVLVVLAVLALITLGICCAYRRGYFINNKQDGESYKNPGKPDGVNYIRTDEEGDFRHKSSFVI

[8] = target: T3, VE-cadherin of primary human …; assay: kinetic PLA in HMVECs in the presence of anti-integrin antibody, against the zero time point (FIG. 4C)
Experimental: (§2) (A, B and D, E) Immunofluorescence staining for ZO-1 (A, D) and transendothelial electrical resistance (TER) measurement (B, E) in confluent HMVEC monolayer. […] Treatments were for 3 or 6 h. HMVECs were counterstained with DAPI (blue) for nuclei and phalloidin (red) for actin stress fibers. Scale bar: 40 μm. White arrows indicate endothelial junction lesions. Data (means±S.D.) from 3 independent experiments. *, P<0.05; **, P<0.01. […] Values (means±S.D.) represent mean fold change in the number of interactions compared to the zero time point, as determined from n=3 independent experiments (˜600 HMVECs) using BlobFinder.

[9] = target: B3; assay: as above
Experimental: as §2

[10] = target: B2; assay: figure legend: kinetic PLA and co-immunoprecipitation in HMVECs
Experimental: Values (means±S.D.) represent mean fold change in the number of interactions compared to the zero time point, as determined from n=3 independent experiments (600 HMVECs) using BlobFinder. […] Protein lysates were collected every 10 minutes (0-180 minutes). Values below each band represent the mean fold change in protein expression level compared with the cognate zero time point (n=3). *, P<0.05; **, P<0.01.

[11] = target: B2; assay: SPR, immobilised cANGPTL4
Experimental: as §1

Binder: B2
binding result (occludin): no binding (tested: 0.16-5.0 µM) | Kd (claudin-5 (SPR analyte)): 58.7 nM | Kd [2]: 12.6 nM | PLA spots/cell [3]: 22.5 PLA spots/cell | PLA spots/cell [4]: 16.4 PLA spots/cell | PLA spots/cell [5]: 12.3 PLA spots/cell | binding result [6]: no binding | Kd [7]: 112 nM | binding result (Tie1): no binding | binding result (Tie2): no binding | binding result (integrin β3 of HMVECs): no binding | binding result (junction protein JAM-C): no binding | mean fold change in the interactions [8]: 0.4 fold | mean fold change in the interactions [9]: 0.4 fold

Binder: B3
binding result [10]: binds

Second part, the binder after the results:

binding result [1]: no binding
B1: VE-cadherin EC3 (other, UniProt P33151 259-372, looked up)
chain: TQTKYTFVVPEDTRVGTSVGSLFVEDPDEPQNRMTKYSILRGDYQDAFTIETNPAHNEGIIKPMKPLDYEYIQQYSFIVEATDPTIDLRYMSPPAGNRAQVIINITDVDEPPIF
notes: domain: EC3

binding result [11]: no binding (tested: 0.16-5.0 µM)
B4: junctional adhesion molecule A (JAM-A) (other, UniProt Q9Y624 28-238, looked up)
chain: SVTVHSSEPEVRIPENNPVKLSCAYSGFSSPRVEWKFDQGDTTRLVCYNNKITASYEDRVTFLPTGITFKSVTREDTGTYTCMVSEEGGNSYGEVKVKLIVLVPPSKPTVNIPSSATIGNRAVLTCSEQDGSPPSEYTWFKDGIVMPTNPKSTRAFSNSSYVLNPTTGELVFDPLSASDTGEYSCEARNGYGTPMTSNAVRMEAVERNVGV
